# Reference: the supplement of paper PMC11865577
# Test system: TO-N3-2 (biotin conjugate)
# Test: pull-down binding Z-score (relative to library population); higher = stronger binding
# Settings: RNA library: Library-2
# Summary of the method: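 Binding is given as a Z-score against the library mean and standard deviation, calculated after removing the beads-only signal and averaging barcoded replicate probes without their highest and lowest values. Cy5- or Cy3-end-labelled RNA library (1 μg) was heat-folded in phosphate/NaCl/KCl buffer and incubated 60 min at 25 °C with streptavidin beads bearing 100 pmol of biotin-conjugated small molecule. After three washes, RNA eluted in hot SDS was hybridised to a DNA barcode microarray for 20 h at 55.5 °C.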
row,Sequence,pull-down binding Z-score
1,AACAACAGCAUCAGAAGCAACAUCAGCUUUAGUU [hsa-mir-569],1
2,AACACCCAUCCCAGGAUUGCUGAUGGGUGUU [hsa-mir-5705],-0.282
3,AACAGCAGGAUUGGCUGUAGCUGUU [hsa-mir-2117],0.369
4,AACAGCUUUGCGAAGUGUUGUU [hsa-mir-4425],-0.553
5,AACAGGACCUGUGCUCACUGGGGCCUGCA [hsa-mir-6797],1.55
6,AACAUACAUUUGUCUUGGUGUGUU [hsa-mir-4684],-1.35
7,AACGUUAUGUGUGGUCUUUAACCUGUU [hsa-mir-6755],-0.171
8,AACUCCUGCGAGUCCCUGGAGUU [hsa-mir-1258],-0.163
9,AACUCUGUUGAAUAUAAAUUGGAAUU [hsa-mir-367],-0.424
10,AACUGUGCGGCCGGCCACACCGUCACACCGGGU [hsa-mir-8083],1.28
11,AAGACACUAUCUGACAACAACAGGGCUCUU [hsa-mir-550b-2],0.234
12,AAGACACUAUCUUACAACAACAGGGCUCUU [hsa-mir-550b-1],0.298
13,AAGAGGAGGUGGUUGUUUUCCUCCUCUU [hsa-mir-627],1.15
14,AAGAGGUAAGAAGAAGUGAAGCCCUCUU [hsa-mir-4778],0.281
15,AAGCAGGGUCGGGCCUGGUU [hsa-mir-7641-2],0.499
16,AAGCAGGGUUGGGCCUGGUU [hsa-mir-7641-1],0.549
17,AAGCCCUACGAGAAACUGGGGUUUCUGGA [hsa-mir-765],0.503
18,AAGCUCUUGCAGUAGGUUU [hsa-mir-1206],-0.369
19,AAGCUGACAGACAGCUG [hsa-mir-5691],0.218
20,AAGCUGUGUGUGUCCAGC [hsa-mir-4732],0.52
21,AAGGCCAGGACCCGCUGACCCAU [hsa-mir-6872],0.567
22,AAGGCCCUUGGGCACCCCAGGCCUU [hsa-mir-5700],0.656
23,AAGGCGGGUGGUGCUCAGAUCGCCU [hsa-mir-326],0.779

row,Sequence,pull-down binding Z-score
1,AAGGGUGUAUGAGAGAUCAACCCUU [hsa-mir-5697],1.19
2,AAGGUGGAGUUCUGGGUGCUGUUUUCCCACUCU [hsa-mir-378i],0.429
3,AAGUAAUUGUUUCUAAUGUACU [hsa-mir-412],0.583
4,AAGUAGUUGGCGUCUUCAGAGACACUU [hsa-mir-643],0.0279
5,AAGUCCGGCUCCAGAACCUGGACACCGCUCAG [hsa-mir-4638],1.09
6,AAGUCGAUUUCCAAAAGUGACUU [hsa-mir-3124],-1.11
7,AAGUGCCGUCCUCAUGAGCCCCU [hsa-mir-6769b],0.802
8,AAGUGGAGCAGGAAUGCGCUUUUCUCCACUG [hsa-mir-5187],0.231
9,AAGUUCCCUCUGGCUGGAAC [hsa-mir-1249],0.112
10,AAUAAAGUAUGUCCACAGCUGAAAGGACAUACUUUAUU [hsa-mir-4464],-1.28
11,AAUCCCAGCACUUUGGGAG [hsa-mir-3929],0.171
12,AAUCCCUCUCUUUCUAGUUCUUCCUAGAGUGAGGAAAA [hsa-mir-320b-1],-0.55
13,AAUGACUCAUAGUCAA [hsa-mir-4475],-0.666
14,AAUGCAGUCUGCACCCUGCUGCAUU [hsa-mir-6504],0.0157
15,AAUGCAUAGAAAGCAUU [hsa-mir-4272],-0.629
16,AAUGCUGUGUUUCUGUAUGGUAUU [hsa-mir-92a-1],-0.268
17,AAUGUCAGGGCCACCCCUGACCUU [hsa-mir-6837],-0.497
18,AAUUGGCUUUUACAAAAGACCAACU [hsa-mir-4798],-0.6
19,AAUUUUCUCUUGUCUAAAAGAAAAGAACG [hsa-mir-521-2],-0.765
20,AAUUUUGAUGAGUAUCAUAGGAGAAAAAUU [hsa-mir-363],0.542
21,AAUUUUUUUUUAAUUUAAAAAAUU [hsa-mir-3938],-1.36
22,ACAAUAUGCUAUUAUAAUCGUAUGGCAUUGU [hsa-mir-2355],-0.994
23,ACAAUUAUGAAAGAAAAGAAAUUGU [hsa-mir-3611],-0.566
